{
  "source": "patent US20110217734A1",
  "about": "(UNIVERSITY OF ILLINOIS AT URBANA CHAMPAIGN, published 2011)",
  "proteins": {"B1": {"name": "RhiG-C-His (enzyme)", "chain": "MKMQLIDCTLRDGGNFNNWFFSAEDINQIILHLDKANVNIIEIGYIGGSGSNKEKSVGSLANCTPELLEQLPKTIHSHLAAMVVPSVCELHLLDNLNPQLIPWIRVASYPHNAEDALPYIEYLKNRGFHVSFNVMAASYIEEKDMAELAKKSHVFGADVFYMADSFGNLTPDGVRKRVAAAFDQADCPVGFHGHNNLGLAFTNALEAMDAGATFIDTSLCGMARGAGNLPTEQFVSAIHHWDKFGDIPYKLHPILTAAEYVLSSILSSPMKISTPEIISGISNIHYYFYDLVISKCREVNLDPLQVSTLLGQTLPKRVDMSYIESVIDQNFRQESAK", "notes": "Recombinant protein expressed in E. coli BL21(DE3), 38.7 kDa per chain; Size-exclusion chromatography gave a native MW of about 75 kDa (homodimer); also called RhiG purified as a C-terminal fusion with a hexahistidine tag; not shown: C-terminal hexahistidine tag from the pET26b vector"}},
  "biological_target": "the molecule itself",
  "assay": "size-exclusion chromatography, self-association",
  "data": [
    {"protein": "B1", "values": [
      {"measurement": "binding result", "value": "binds"}
    ]}
  ]
}
